In patent US7442375B2, “Compositions of beta-defensin inducing agents” (Case Western Reserve University, priority 2002, dated 2008):

Experiments:
CEM X4/R5 cells = test: Confocal microscopy, localisation of hBD on CEM X4/R5 cells; type: cell-based, human; settings: live cells incubated with hBD, then anti-hBD antibodies
Procedure: (§1) CEM X4/R5 cells were grown in RPMI-1640 medium containing 5% FBS and 400 μg/ml G418. Cells were collected, washed twice with PBS, resuspended in RPMI with 0.5% FBS or supplemented with 20 μg/ml recombinant hBD-2 or -3, and incubated at 37° C., 5% CO2 for 3 h. A second aliquot of cells, after incubation with hBD, was treated with FACS/Perm (PharMingen) at room temperature for 10 min and then washed three times with PBS. A third aliquot of cells was fixed in 1% paraformaldehyde on ice for 30 min, washed three times with PBS, and then incubated with 20 μg/ml hBD-2 or -3. Cells were stained with PE-labeled CXCR4 or CCR5 (PharMingen), or with primary goat anti-hBD-2 antibodies (Cell Sciences, Norwood, Mass., USA), or with rabbit anti-hBD-3 antibodies (Orbingen, San Diego, Calif., USA) at room temperature for 90 min, followed by washing three times with PBS. Fluorescein isothiocyanate-labeled rabbit anti-goat IgG (Jackson ImmunoResearch, West Grove, Pa., USA) for detection of hBD-2, or goat anti-rabbit IgG (Sigma) for detection of hBD-3, were added, respectively, at room temperature and incubated for 90 min. […] All samples were observed using a dual scanning confocal microscope system (Zeiss LSM 510, Oberkochem, Germany) and analyzed with the Zeiss LSM 5 Image Browser. […]

CXCR4 = CXCR4 (Homo sapiens, UniProt P61073); test: Confocal microscopy of co-receptor surface expression on CEM X4/R5 cells; type: cell-based; design: endogenous in cells; settings: 20 μg/ml, 3 h
Procedure: as §1

CCR5 = CCR5 (Homo sapiens, UniProt P51681); test: as above; type: cell-based; design: endogenous in cells; settings: 20 μg/ml, 3 h
Procedure: as §1

CCR5, sequence (P51681 whole entry): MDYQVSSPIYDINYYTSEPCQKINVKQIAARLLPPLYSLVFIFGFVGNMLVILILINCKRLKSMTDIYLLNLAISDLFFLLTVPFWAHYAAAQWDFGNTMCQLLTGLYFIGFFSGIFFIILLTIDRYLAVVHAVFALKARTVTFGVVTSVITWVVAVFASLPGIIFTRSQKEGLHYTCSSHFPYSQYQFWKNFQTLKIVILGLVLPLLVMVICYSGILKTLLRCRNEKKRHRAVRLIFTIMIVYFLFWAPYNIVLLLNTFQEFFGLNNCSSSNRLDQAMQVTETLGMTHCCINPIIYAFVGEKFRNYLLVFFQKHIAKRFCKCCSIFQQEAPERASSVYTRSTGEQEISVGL
CXCR4, sequence (P61073 whole entry): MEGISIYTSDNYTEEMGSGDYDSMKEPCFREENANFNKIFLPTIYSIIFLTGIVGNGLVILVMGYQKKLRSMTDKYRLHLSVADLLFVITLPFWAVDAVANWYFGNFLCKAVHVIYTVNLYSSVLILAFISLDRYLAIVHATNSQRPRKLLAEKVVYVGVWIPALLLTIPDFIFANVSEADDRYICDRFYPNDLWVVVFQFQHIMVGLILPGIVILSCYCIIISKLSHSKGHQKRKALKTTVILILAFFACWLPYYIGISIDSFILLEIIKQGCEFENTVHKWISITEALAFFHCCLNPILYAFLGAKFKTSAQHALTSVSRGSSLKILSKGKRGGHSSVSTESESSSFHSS

B1: hBD-3: Recombinant human β-defensin 3 produced using an hBD-3-His tag fusion construct cloned into pET-30c; exemplary sequence SEQ ID NO:15 (protein, listed as Homo sapiens)
chain: MRIHYLLFALLFLFLVPVPGHGGIINTLQKYYCRVRGGRCAVLSCLPKEEQIGKCSTRGRKCCRRKK
modifications: not fully specified (C-terminus); ends and bridges not checked
detection of peptide on the cell surface (CEM X4/R5 cells): failed to detect
surface expression of CXCR4 (CXCR4): dramatically decreased
surface expression of CCR5 (CCR5): not
